{
  "source": "paper PMC4778124",
  "about": "“A continuous sirtuin activity assay without any coupling to enzymatic or chemical reactions” (Scientific Reports, 2016)",
  "proteins": {"B1": {"name": "Sirt2 (Homo sapiens) (protein)", "chain": "MAEPDPSHPLETQAGKVQEAQDSDSDSEGGAAGGEADMDFLRNLFSQTLSLGSQKERLLDELTLEGVARYMQSERCRRVICLVGAGISTSAGIPDFRSPSTGLYDNLEKYHLPYPEAIFEISYFKKHPEPFFALAKELYPGQFKPTICHYFMRLLKDKGLLLRCYTQNIDTLERIAGLEQEDLVEAHGTFYTSHCVSASCRHEYPLSWMKEKIFSEVTPKCEDCQSLVKPDIVFFGESLPARFFSCMQSDFLKVDLLLVMGTSLQVQPFASLISKAPLSTPRLLINKEKAGQSDPFLGMIMGLGGGMDFDSKKAYRDVAWLGECDQGCLALAELLGWKKELEDLVRREHASIDAQSGAGVPNPSTSASPKKSPPPAKDEARTTEREKPQ", "notes": "made in house"}},
  "key": {"[1]": {"substrate": "CC(=O)N[C@@H](CCC(=O)O)C(=O)N[C@@H](C)C(=O)N[C@@H](CC(C)C)C(=O)N1CCC[C@H]1C(=O)N[C@@H](CCCCN)C(=O)N[C@@H](CCCCNC(=O)CCCCCNC(=O)c1ccccc1N)C(=O)N[C@@H](Cc1ccc(O)c([N+](=O)[O-])c1)C(=O)NCC(=O)NCC(N)=O", "test": "purified protein, by the assay type", "settings": "other: Sirt2, measured using fluorescence spectrophotometer (footnote a), 0.5 mM NAD+, 37 °C", "description": "(§3) Each reaction mixture contained assay-buffer, 0.5 mM NAD^+ and various peptide concentrations (0.1–100 μM) and was preincubated for 5 minutes at 37 °C. The reaction was started by adding human sirtuin (0.1–0.5 μM) and observed for 5–10 minutes. Product formation could be monitored by increase of relative fluorescence. This signal was converted into product concentration via calibration lines. The slope of the linear regression of product formation against time yielded the reaction velocity rates in μM/s. KM and kcat were obtained by non-linear regression according to Michaelis-Menten. All measurements were done in duplicates. For determination of reaction velocity rates in μM/s calibration lines were necessary. […] The reaction mixture was analyzed with HPLC, to control if the entire peptide substrate was turned to product.\n(§4) The reactions (total volume 100 μl) were measured in black low-binding 96-well microtiter plates (NUNC). Assay-buffer, 500 μM NAD^+ and 0.07–200 μM peptide substrate were pre-incubated at 37 °C for 5 min. The reaction was started by adding human sirtuin (0.01–0.5 μM). The signals were converted into product concentration via calibration lines and the resulting data were evaluated as described above (single fluorescence measurement). […] All measurements were done in duplicates. The reaction mixture for the calibration lines was prepared as described for the single fluorescence measurements."}, "[2]": {"substrate": "CC(=O)N[C@@H](CCC(=O)O)C(=O)N[C@@H](C)C(=O)N[C@@H](CC(C)C)C(=O)N1CCC[C@H]1C(=O)N[C@@H](CCCCN)C(=O)N[C@@H](CCCCNC(=O)CCCCCNC(=O)CCCCCNC(=O)c1ccccc1N)C(=O)N[C@@H](Cc1ccc(O)c([N+](=O)[O-])c1)C(=O)NCC(=O)NCC(N)=O", "test": "purified protein, by the assay type", "settings": "other: Sirt2; measured using MTP fluorescence reader (footnote b); 37.0 °C", "description": "as §3, §4"}, "[3]": {"substrate": "CC(=O)N[C@@H](CCC(=O)O)C(=O)N[C@@H](C)C(=O)N[C@@H](CC(C)C)C(=O)N1CCC[C@H]1C(=O)N[C@@H](CCCCN)C(=O)N[C@@H](CCCCNC(=O)CCCCCCCNC(=O)c1ccccc1N)C(=O)N[C@@H](Cc1ccc(O)c([N+](=O)[O-])c1)C(=O)NCC(=O)NCC(N)=O", "test": "purified protein, by the assay type", "settings": "other: Sirt2; measured using MTP fluorescence reader (footnote b); 37.0 °C", "description": "as §3, §4"}, "[4]": {"substrate": "CC(=O)N[C@@H](CCC(=O)O)C(=O)N[C@@H](C)C(=O)N[C@@H](CC(C)C)C(=O)N1CCC[C@H]1C(=O)N[C@@H](CCCCN)C(=O)N[C@@H](CCCCNC(=O)CCCCCCCCCCNC(=O)c1ccccc1N)C(=O)N[C@@H](Cc1ccc(O)c([N+](=O)[O-])c1)C(=O)NCC(=O)NCC(N)=O", "test": "purified protein, by the assay type", "settings": "other: Sirt2, measured using fluorescence spectrophotometer (footnote a), 0.5 mM NAD+, 37 °C", "description": "as §3, §4"}, "[5]": {"substrate": "COc1ccc2c(C[C@H](NC(=O)[C@H](CCCCNC(=O)CCCCCCCCCCNC(=O)c3cc([N+](=O)[O-])ccc3N)NC(=O)[C@H](CCCCN)NC(=O)[C@@H]3CCCN3C(=O)[C@H](CC(C)C)NC(=O)[C@H](C)NC(=O)[C@H](CCC(=O)O)NC(C)=O)C(=O)NCC(=O)NCC(N)=O)cc(=O)oc2c1", "test": "purified protein, by the assay type", "settings": "other: MTPR (microtiter plate reader); Sirt2; 37.0 °C", "description": "as §3, §4"}, "[6]": {"substrate": "CC(=O)N[C@@H](CCC(=O)O)C(=O)N[C@@H](C)C(=O)N[C@@H](CC(C)C)C(=O)N1CCC[C@H]1C(=O)N[C@@H](CCCCN)C(=O)N[C@@H](CCCCNC(=O)CCCCCCCCCCNC(=O)CN1C(=O)c2cccc3c(N(C)C)ccc(c23)C1=O)C(=O)N[C@@H](Cc1ccc(O)c([N+](=O)[O-])c1)C(=O)NCC(=O)NCC(N)=O", "test": "purified protein, by the assay type", "settings": "other: MTPR (microtiter plate reader); Sirt2; 37.0 °C", "description": "as §3, §4"}, "[7]": {"substrate": "CC(=O)N[C@@H](CCC(=O)O)C(=O)N[C@@H](C)C(=O)N[C@@H](CC(C)C)C(=O)N1CCC[C@H]1C(=O)N[C@@H](CCCCN)C(=O)N[C@@H](CCCCNC(=O)CCCCCNC(=O)c1ccccc1N)C(=O)N[C@@H](Cc1ccc(O)c([N+](=O)[O-])c1)C(=O)NCC(=O)NCC(N)=O", "test": "HPLC based activity assay", "assay_type": "biochemical, human", "settings": "other: HPLC; Sirt2; pH 7.8; 37.0 °C", "procedure": "(§1) For the determination of kinetic constants for all sirtuin mediated reactions solutions containing 20 mM TRIS/HCl pH 7.8, 150 mM NaCl, 5 mM MgCl2 (assay-buffer), 500 μM NAD^+ and varying substrate concentrations (0.5–100 μM) were used. Deacylation was started by adding human sirtuin to reach a final concentration of 0.01–0.5 μM. Enzyme-catalyzed reaction was stopped using TFA (1% final concentration) after 1 min to 180 min of incubation at 37 °C depending on substrate reactivity. The cleavage rate of the different TNFα peptide derivatives was analyzed using analytical reversed phase HPLC. 40 to 80 μl of compounds or reaction solutions were injected and separated using a linear gradient from 5% to 95% solvent B within 6min. The product and substrate peaks were quantified using absorbance at 220 nm or 365 nm (absorption of 3-Nitrotyrosyl moiety). The peak areas were integrated and converted to initial velocity rates calculated from the ratio of product area to total peak area. Linear regression of conversions plotted against time yielded reaction rates in μM/min (relative conversion below 20% of substrate). Non-linear regression according to Michaelis-Menten of the reaction rates at different substrate concentrations yielded KM- and kcat-values using the program SigmaPlot 8 (Systat Software, San Jose, USA). All measurements were done in duplicates.\n(§2) The reactions were performed with 0.1- 0.5 µM sirtuin, 500 µM NAD^+ and 50µM 13/16. All reactions were done in duplicates (n=2)."}, "[8]": {"substrate": "CCCCCCCCCCCCCC(=O)NCCCC[C@H](NC(=O)[C@H](CCCCN)NC(=O)[C@@H]1CCCN1C(=O)[C@H](CC(C)C)NC(=O)[C@H](C)NC(=O)[C@H](CCC(=O)O)NC(C)=O)C(=O)N[C@H](C(=O)NCC(=O)NCC(N)=O)[C@@H](C)O", "test": "HPLC based activity assay", "assay_type": "biochemical, human", "settings": "other: HPLC; Sirt2; pH 7.8; 37.0 °C", "procedure": "as §1, §2"}, "[9]": {"substrate": "CC(=O)N[C@@H](CCC(=O)O)C(=O)N[C@@H](C)C(=O)N[C@@H](CC(C)C)C(=O)N1CCC[C@H]1C(=O)N[C@@H](CCCCN)C(=O)N[C@@H](CCCCNC(=O)CCCCCCCCCCNC(=O)c1ccccc1N)C(=O)N[C@@H](Cc1ccc(O)c([N+](=O)[O-])c1)C(=O)NCC(=O)NCC(N)=O", "test": "HPLC based activity assay", "assay_type": "biochemical, human", "settings": "other: HPLC; Sirt2; pH 7.8; 37.0 °C", "procedure": "as §1, §2"}},
  "note": "Values joined by “and” are separate entries in the source; they are usually repeats but may differ in a detail not shown here. Identical values can stand only once.",
  "data": [
    {"protein": "B1", "values": [
      {"measurement": "Km", "setting": "[1]", "result": "17.7 ± 1.5", "unit": "µM"},
      {"measurement": "Km", "setting": "[2]", "result": "15.3 ± 2.7", "unit": "µM"},
      {"measurement": "kcat/Km", "setting": "[2]", "result": 156, "unit": "M⁻¹ s⁻¹"},
      {"measurement": "Km", "setting": "[3]", "result": "1.2 ± 0.1", "unit": "µM"},
      {"measurement": "kcat/Km", "setting": "[3]", "result": 38600, "unit": "M⁻¹ s⁻¹"},
      {"measurement": "Km", "setting": "[4]", "result": "0.1 ± 0.02 µM and 0.12 ± 0.02 µM"},
      {"measurement": "Km", "setting": "[5]", "result": "0.8 ± 0.1", "unit": "µM"},
      {"measurement": "kcat", "setting": "[5]", "result": "9.6∙10^-2 ± 0.5∙10^-2 s^-1"},
      {"measurement": "kcat/Km", "setting": "[5]", "result": "1.25∙10^5 M^-1s^-1"},
      {"measurement": "Km", "setting": "[6]", "result": "7.5 ± 1.5", "unit": "µM"},
      {"measurement": "kcat", "setting": "[6]", "result": "2.6∙10^-3 ± 0.2∙10^-3 s^-1"},
      {"measurement": "kcat/Km", "setting": "[6]", "result": "3.42∙10^2 M^-1s^-1"},
      {"measurement": "Km", "setting": "[7]", "result": "26.8 ± 2.7", "unit": "µM"},
      {"measurement": "kcat", "setting": "[7]", "result": "3.9∙10^-3 ± 0.2∙10^-3 s^-1"},
      {"measurement": "kcat/Km", "setting": "[7]", "result": "1.46∙10^2 M^-1s^-1"},
      {"measurement": "Km", "setting": "[8]", "result": "0.7 ± 0.1", "unit": "µM"},
      {"measurement": "kcat", "setting": "[8]", "result": "3.7∙10^-2 ± 0.1∙10^-2 s^-1"},
      {"measurement": "kcat/Km", "setting": "[8]", "result": "5.30∙10^4 M^-1s^-1"},
      {"measurement": "Km", "setting": "[9]", "result": "0.3 ± 0.04", "unit": "µM"},
      {"measurement": "kcat", "setting": "[9]", "result": "3.9∙10^-2 ± 0.1∙10^-2 s^-1"},
      {"measurement": "kcat/Km", "setting": "[9]", "result": "1.18∙10^5 M^-1s^-1"}
    ]}
  ]
}
